Data: article PMC4466810 (2015)

Target: T1, VEGF-A (VEGF165) (Homo sapiens, UniProt P15692)
T1 chain: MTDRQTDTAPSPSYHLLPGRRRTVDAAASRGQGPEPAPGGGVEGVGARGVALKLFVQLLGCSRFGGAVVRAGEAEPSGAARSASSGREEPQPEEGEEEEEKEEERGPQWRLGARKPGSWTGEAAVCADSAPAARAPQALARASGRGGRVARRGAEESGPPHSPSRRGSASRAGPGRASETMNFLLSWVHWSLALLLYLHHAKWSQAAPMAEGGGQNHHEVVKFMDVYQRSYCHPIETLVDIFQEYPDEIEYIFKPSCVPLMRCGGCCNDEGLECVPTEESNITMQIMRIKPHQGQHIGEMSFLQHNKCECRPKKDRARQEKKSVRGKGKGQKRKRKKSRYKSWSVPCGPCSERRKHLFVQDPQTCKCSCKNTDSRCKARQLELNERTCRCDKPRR
Assay: equilibrium binding assay (ELISA of unbound blocker)

B1: HB-002.1 (VEGFR1 D2-Fc fusion) 129-228 (protein)
chain: SDTGRPFVEMYSEIPEIIHMTEGRELVIPCRVTSPNITVTLKKFPLDTLIPDGKRIIWDSRKGFIISNATYKEIGLLTCEATVNGHLYKTNYLTHRQTNT
modifications: fused to human IgG1 Fc
  Kd: 180 pM
